Measured values taken from patent publication US20170209529A1 (BRIGHAM AND WOMEN S HOSPITAL, published 2017).
Where “and” joins values, the source holds several entries; their conditions need not be identical. Identical values can stand only once. Like-named read-outs stand apart in the source and are kept apart here. Each block holds one binder with its values, some of them ahead of it. Bridge positions count the residues as written; N and C are the ends.

Assays:
[1] = molecular target: T1, soluble human FcRn (shFcRn) (human, UniProt P55899 24-297; P61769 21-119); assay: SPR (Biacore), pH 6.0
T1 construct: For crystallography it was expressed in CHOK1SV cells and deglycosylated with PNGaseF; biotinylated for phage selection; also called hFcRn/β2m; FcRn-biotin
Experimental: (§1) SPR analyses: SPR analyses were conducted using a Biacore 3000 or T100 instrument. Research-grade CMS sensor chips and all coupling reagents for immobilization were purchased from Biacore. All proteins were cross-linked to the dextran surface of a CM5 sensor chip by standard amine coupling chemistry as recommended by Biacore. […] Binding experiments were performed at pH 6.0 or 7.4 using 50 mM phosphate, 100 mM sodium chloride and 0.01% surfactant P20. […] Bound albumin protein was then allowed to dissociate from the chip for 5 minutes with running buffer. Any remaining albumin was removed from the chip with a 60 second injection (2 cycles) of pH 8.0 Tris-HCl regeneration buffer (1 M Tris pH 8.0) at 25 μL/min flow rate. The binding responses recorded near the end of the association phase were plotted as a function of concentration. Equilibrium dissociation constants (KD), were derived from sensorgrams using the 1:1 binding model of BlAevaluation software 4.1.

[2] = molecular target: T1, soluble human FcRn (shFcRn); assay: method not stated in the sentence (Example 5, description of peptides); approximate KD in the Example 5 text, pH and method not stated
[3] = molecular target: T1, soluble human FcRn (shFcRn); assay: SPR (Biacore), pH 7.4
Experimental: as §1

[4] = molecular target: T1, soluble human FcRn (shFcRn); assay: SPR (Biacore), immobilized shFcRn, pH 6, fit 'ss'
[5] = molecular target: T1, soluble human FcRn (shFcRn); assay: SPR (Biacore), Kd pH 7.4 divided by Kd pH 6.0
[6] = molecular target: T1, soluble human FcRn (shFcRn); assay: SPR (Biacore), immobilized shFcRn, pH 6, 2 site fit
[7] = molecular target: T1, soluble human FcRn (shFcRn); assay: SPR (Biacore), immobilized shFcRn, pH 6, steady-state fit
[8] = molecular target: T1, soluble human FcRn (shFcRn); assay: SPR (Biacore), immobilized shFcRn, pH 7.4
[9] = molecular target: T1, soluble human FcRn (shFcRn); assay: SPR (Biacore), immobilized shFcRn, pH 6; data fit column: aggregates/non specific
[10] = molecular target: T1, soluble human FcRn (shFcRn); assay: SPR (Biacore), immobilized shFcRn, pH 7.4; remark: listed apart in the source
[11] = molecular target: T1, soluble human FcRn (shFcRn); assay: SPR (Biacore), Kd pH 7.4 divided by Kd pH 6.0; remark: listed apart in the source
[12] = molecular target: T1, soluble human FcRn (shFcRn); assay: SPR (Biacore), immobilized shFcRn, pH 6, steady-state fit; remark: listed apart in the source
[13] = molecular target: T1, soluble human FcRn (shFcRn); assay: SPR (Biacore), pH 6.0; pH 6.0
[14] = molecular target: T1, soluble human FcRn (shFcRn); assay: SPR (Biacore), immobilized shFcRn, pH 6, steady-state fit; pH 6; first of two values in the cell, marked *; immobilized shFcRn
[15] = molecular target: T1, soluble human FcRn (shFcRn); assay: phage display hit; X-ray crystallography

Binder: Ac-YATCKWDDGFSCEYV-NH2 (disulfide 4-12 (inferred)) [SYN1145]
Kd [4]: 57 µM

Binder: Ac-YMTCAWDDGFSCEYV-NH2 (disulfide 4-12 (inferred)) [SYN1147]
Kd Ratio 7.4/6.0 [5]: 56 | Kd [6]: 0.47 µM | Kd [7]: 0.48 µM | Kd [8]: 27 µM

Binder: Ac-YMACKWDDGFSCEYV-NH2 (disulfide 4-12 (inferred)) [SYN1146]
Kd Ratio 7.4/6.0 [5]: 34.4 | Kd [6]: 0.25 µM | Kd [8]: 8.6 µM

Binder: Ac-AGRYFCTKWKHGWCEEVGTGGGK-NH2 (disulfide 6-14 (inferred)) [SYN571]
Kd [10]: 13.1 µM | Kd Ratio 7.4/6.0 [11]: 29 | Kd [12]: 0.45 µM and 0.5 µM | Kd [3]: 13.1 µM | Kd [13]: 0.5 µM

Binder: Ac-AGYMTCKWDDGFSCEYVGTGGGK-NH2 (disulfide 6-14 (inferred)) [SYN515]
Kd Ratio 7.4/6.0 [5]: 78 | Kd [6]: 0.23 µM | Kd [8]: 18 µM

Next, values leading:

Kd [1]: 0.031 µM | Kd [2]: ~0.025 µM | Kd [3]: 0.17 µM
B1: SYN1327 (peptide)
peptide: RFXTGHFGXLYPC
modifications: N-terminal acetyl; C-terminal amide; Pen (L-penicillamine) at 3; Sar (sarcosine) at 9; NMeLeu (L-N-methylleucine) at 10

Kd Ratio 7.4/6.0 [5]: 2.2 | Kd [6]: 0.18 µM | Kd [8]: 0.4 µM
Binder: Ac-YMTCKWDAGFSCEYV-NH2 (disulfide 4-12 (inferred)) [SYN1150]

binding result [9]: no binding
Binder: Ac-VMHAFWDEEFRAEYV-NH2 [SYN1559]

Kd [14]: 0.031 µM | Kd Ratio 7.4/6.0 [5]: 61 | Kd [7]: 0.018 µM | Kd [8]: 1.1 µM
Binder: Ac-VMKCWWDEEFLCRAF-NH2 (disulfide 4-12 (inferred)) [SYN1536]

binding result [15]: binds
Binder: Ac-AGVMHCFWDEEFKCDQGGTGGGK-NH2 (disulfide 6-14 (inferred)) [SYN514]

Kd [1]: 0.032 µM | Kd Ratio 7.4/6.0 [5]: 34 | Kd [7]: 0.032 µM | Kd [8]: 1.1 µM | Kd [3]: 1.1 µM
B2: SYN1383 (peptide)
peptide: Ac-VMHCFWDEEFRCEYV-NH2
modifications: disulfide 4-12 (inferred)
notes: Truncated and SAR-optimized analog of SYN514
